Experiments:
[1] = target: RLp… after cleavage to N-terminal leucine (Lp…); experiment: single-molecule dynamic sequencing on chip
[2] = target: … after cleavage to N-terminal leucine (…); experiment: single-molecule dynamic sequencing on chip
[3] = target: EFIAWLV after cleavage to N-terminal leucine (LV); experiment: on-chip dynamic sequencing of EFIAWLV, example trace
[4] = target: EFIAWLV after cleavage to N-terminal leucine (LV); experiment: on-chip dynamic sequencing of EFIAWLV, kinetic signature plot
[5] = target: peptide with N-terminal IAA; experiment: single-molecule on-chip recognition of immobilized peptide, dye-labeled recognizer
[6] = target: peptide with N-terminal LAA; experiment: as above
[7] = target: peptide with N-terminal VAA; experiment: as above
[8] = target: EFIAWLVK after cleavage to N-terminal leucine (LVK); experiment: on-chip dynamic sequencing of the GLP-1 digest peptide EFIAWLVK, kinetic signature plot
[9] = target: … after cleavage to N-terminal leucine (…); experiment: on-chip dynamic sequencing of [..] with PS691, PS610, PS961; one example trace, segment at about 113-128 min, BR=0.31
[10] = substrate: I of … / RLp… (IAYPDDD); experiment: on-chip dynamic sequencing of [..] with PS691, PS610, PS961; one example trace, segment at about 247-277 min, BR=0.27
[11] = target: RLp… after cleavage to N-terminal leucine (Lp…); experiment: on-chip dynamic sequencing of RLp[..] with PS691, PS610, PS961; one example trace, segment at about 20-52 min, BR=0.28
[12] = substrate: I of … / RLp… (IAYPDDD); experiment: on-chip dynamic sequencing of RLp[..] with PS691, PS610, PS961; one example trace, segment at about 143-155 min, BR=0.25
[13] = target: HL Peptide (stopped-flow); experiment: stopped-flow rapid kinetics
[14] = target: RA Peptide (stopped-flow); experiment: stopped-flow rapid kinetics
[15] = target: RL Peptide (stopped-flow); experiment: stopped-flow rapid kinetics
QP304-RAIFAG peptide = target: T1, QP304-RAIFAG peptide; experiment: single-molecule on-chip recognition run
T1 sequence (peptide): RAIFAG

[16] = target: peptide RLp…; experiment: single-molecule dynamic sequencing on chip
[17] = target: peptide …; experiment: single-molecule dynamic sequencing on chip
[18] = target: T2, … after cleavage to N-terminal arginine (RLIFAG); experiment: on-chip dynamic sequencing of …, lower trace
T2 sequence (peptide, C-terminal azidolysine linked to DNA-streptavidin (p-0304)): RLIFAG

[19] = target: T2, … after cleavage to N-terminal arginine (RLIFAG); experiment: on-chip dynamic sequencing of …, upper trace
[20] = target: T3, synthetic peptide …; experiment: on-chip dynamic sequencing of …, example trace
T3 sequence (peptide): RLAFAYPDDD

[21] = target: T4, synthetic peptide …; experiment: on-chip dynamic sequencing of …, example trace; remark: listed apart in the source
T4 sequence (peptide): RLAFSALGAADDD

[22] = target: T5, synthetic peptide …; experiment: on-chip dynamic sequencing of …, example trace; remark: listed apart in the source
T5 sequence (peptide): RLIFAYPDDD

[23] = target: T6, synthetic peptide …; experiment: on-chip dynamic sequencing of …, example trace; remark: listed apart in the source
T6 sequence (peptide): RLMFAYPDDD

[24] = target: T7, synthetic peptide …; experiment: on-chip dynamic sequencing of …, example trace; remark: listed apart in the source
T7 sequence (peptide): RLVFAYPDDD

[25] = target: T2, … after cleavage to N-terminal arginine (RLIFAG); experiment: on-chip dynamic sequencing of …, example trace
[26] = target: T8, … after cleavage to N-terminal arginine (…); experiment: on-chip dynamic sequencing of …, example trace
T8 sequence (peptide): RLAASFAAQQYPDDD

[27] = target: T9, RA peptide (X…-FITC, X = R); experiment: fluorescence polarization titration, PS691 0-3000 nM
T9 sequence (peptide, FITC on the C-terminal Lys): RAKLDEESILKQK

[28] = target: T3, synthetic peptide …; experiment: on-chip dynamic sequencing of …, kinetic signature plot
[29] = target: T4, synthetic peptide …; experiment: as above; remark: listed apart in the source
[30] = target: T5, synthetic peptide …; experiment: as above; remark: listed apart in the source
[31] = target: T7, synthetic peptide …; experiment: as above; remark: listed apart in the source
[32] = target: T2, … after cleavage to N-terminal arginine (RLIFAG); experiment: as above
[33] = target: T8, … after cleavage to N-terminal arginine (…); experiment: as above
peptide RLMoFAYPDDD = target: T10, peptide RLMoFAYPDDD; experiment: on-chip dynamic sequencing of RLMoFAYPDDD, example trace
T10 sequence (peptide, M3 = methionine sulfoxide (Mo)): RLMFAYPDDD

[34] = target: peptide with N-terminal RLA; experiment: single-molecule on-chip recognition of immobilized peptide, dye-labeled recognizer
[35] = target: T4, synthetic peptide …; experiment: on-chip dynamic sequencing of a mixture of … and … on one chip, signature of …
[36] = target: T2, … after cleavage to N-terminal arginine (RLIFAG); experiment: as above
[37] = target: T9, RA peptide (X…-FITC, X = R); experiment: fluorescence polarization titration, recognizer 0-3000 nM, labeled peptide fixed
[38] = target: T11, … after cleavage to N-terminal arginine (RLIFAGK); experiment: on-chip dynamic sequencing of the ubiquitin digest peptide …, kinetic signature plot
T11 sequence (peptide): RLIFAGK

[39] = target: peptide …; experiment: on-chip dynamic sequencing of [..] with PS691, PS610, PS961; one example trace, segment at about 107-113 min, BR=0.46
[40] = target: peptide RLp…; experiment: on-chip dynamic sequencing of RLp[..] with PS691, PS610, PS961; one example trace, segment at about 3-18 min, BR=0.43

B1: PS961 (designed binder)
chain: MPTAASATESAIEDTPAPARPEVDGRTKPKRQPRYHVVLWDDDDHTYQYVVVMLRSLFGHPPSRGYRMAKEMDTQGRVIVLTTTREHAELKRDQIHAFGRDRLLARSKGSMKASIEAEE
[1]
  RS mean pulse duration (PD): 3.4 s
[2]
  RS mean pulse duration (PD): 2.45 s
[3]
  PD printed above the recognition segment (one trace): 5.92 s
[4]
  median PD (kinetic signature): 5.3 s
[5]
  median pulse duration (PD): 0.28 s
[6]
  median pulse duration (PD): 1.21 s
[7]
  median pulse duration (PD): 0.21 s
[8]
  median PD (kinetic signature): 2.99 s
[9]
  PW (pulse width of the segment in the example trace): 2.93
[10]
  PW (pulse width of the segment in the example trace): 0.2
[11]
  PW (pulse width of the segment in the example trace): 3.57
[12]
  PW (pulse width of the segment in the example trace): 0.24

B2: PS691 (designed binder, from a related filing)
chain: MHSKFSHAGRICGAKFKVGEPIYRCKECSFDDTCVLCVNCFNPKDHTGHHVYTTICTEFNNGICDCGDKEAWNHTLFCKAEEGGSAGSAAGSGEFMHSKFSHAGRICGAKFKVGEPIYRCKECSFDDTCVLCVNCFNPKDHTGHHVYTTICTEFNNGICDCGDKEAWNHTLFCKAEEGGGSHHHHHHHHHHGGGSGGGSGGGSGLNDFFEAQKIEWHEGGGSGGGSGGGSGLNDFFEAQKIEWHE
[13]
  koff: 51.4 s⁻¹
[14]
  koff: 69.4 s⁻¹
  kon: 2.6e+07 M⁻¹ s⁻¹
[15]
  koff: 19.7 s⁻¹
QP304-RAIFAG peptide
  pulse duration: 0.16 s
[16]
  RS mean pulse duration (PD): 0.45 s
[17]
  RS mean pulse duration (PD): 0.9 s
[18]
  PD printed above the recognition segment (one trace): 0.34 s
[19]
  PD printed above the recognition segment (one trace): 0.21 s
[20]
  PD printed above the recognition segment (one trace): 0.25 s
[21]
  PD printed above the recognition segment (one trace): 0.17 s
[22]
  PD printed above the recognition segment (one trace): 0.29 s
[23]
  PD printed above the recognition segment (one trace): 0.27 s
[24]
  PD printed above the recognition segment (one trace): 0.27 s
[25]
  PD printed above the recognition segment (one trace): 0.29 s
[26]
  PD printed above the recognition segment (one trace): 0.17 s
[27]
  Kd: 369 nM
[28]
  median PD (kinetic signature): 0.22 s
[29]
  median PD (kinetic signature): 0.19 s
[30]
  median PD (kinetic signature): 0.29 s
[31]
  median PD (kinetic signature): 0.27 s
[32]
  median PD (kinetic signature): 0.24 s
[33]
  median PD (kinetic signature): 0.17 s
Peptide RLMoFAYPDDD
  PD printed above the recognition segment (one trace): 0.25 s
[34]
  median pulse duration (PD): 0.23 s
[35]
  median PD (kinetic signature): 0.21 s
[36]
  median PD (kinetic signature): 0.26 s
[37]
  Kd: 369 nM
[38]
  median PD (kinetic signature): 0.31 s
[39]
  PW (pulse width of the segment in the example trace): 0.9
[40]
  PW (pulse width of the segment in the example trace): 0.54

From US20240272170A1
